Consider two molecules from PMC6028617, “ADP-Dependent Kinases From the Archaeal Order Methanosarcinales Adapt to Salt by a Non-canonical Evolutionarily Conserved Strategy” (Frontiers in Microbiology, 2018).

In one data set the target is T1, AncMsPFK/GK (synthetic construct, UniProt Z9Y5W3ZEF0).
T1 construct: heat step 80 C, Ni-Sepharose
T1 sequence (Z9Y5W3ZEF0 22-511): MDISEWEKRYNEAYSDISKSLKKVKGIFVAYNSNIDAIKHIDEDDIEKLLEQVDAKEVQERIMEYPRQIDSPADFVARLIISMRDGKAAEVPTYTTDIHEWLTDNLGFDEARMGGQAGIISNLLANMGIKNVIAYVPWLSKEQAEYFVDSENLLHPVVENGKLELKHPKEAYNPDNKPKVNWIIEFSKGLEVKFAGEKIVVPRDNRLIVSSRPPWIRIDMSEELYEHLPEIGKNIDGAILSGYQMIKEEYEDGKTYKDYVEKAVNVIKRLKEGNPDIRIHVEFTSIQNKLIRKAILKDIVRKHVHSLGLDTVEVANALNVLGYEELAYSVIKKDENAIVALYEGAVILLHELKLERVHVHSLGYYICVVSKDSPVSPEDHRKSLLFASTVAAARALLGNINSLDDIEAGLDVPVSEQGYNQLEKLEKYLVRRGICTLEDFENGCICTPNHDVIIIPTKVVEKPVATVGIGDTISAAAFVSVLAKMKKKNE
Nature of the data set: X-ray crystal structure, […] Å. In kind it is binding. The following applies: Mg2+ in active site; Ni2+ at three surface sites; crystals pH 4.5.

Substrate in the data set “purified protein”: Nc1ncnc2c1ncn2[C@@H]1O[C@H](COP(=O)(O)OP(=O)(O)O)[C@@H](O)[C@H]1O
Nature of the data set: purified protein. In kind it is biochemical, Methanosarcina mazei. Conditions: PFK activity, saturating fructose-6P, 25 mM PIPES pH 6.5, 40 C, as Mg-ADP.

For `Nc1ncnc2c1ncn2[C@@H]1O[C@H](COP(=O)(O)OP(=O)(O)O)[C@@H](O)[C@H]1O` [ADP], at AncMsPFK/GK, the “X-ray crystal structure, 2.86 Å” value is “crystals for the ancMsPFK/GK in complex with ADP, which was solved by molecular replacement”.

B1: MmazPFK/GK (Methanosarcina mazei Go1) (protein)
chain: MDMEEWEQRHNEAFYDAKEALPYLDGMFVAYNSNIDAIRHLDEEALTKLIGFFDEAEIQERVAVYPREIADPLDFIARLLIAMREGKAAEVPTYTEEIHTWLKEHLGFDYARMGGQAGIISNLLARLDLKKVVAYIPWLSAEQAEYFEDNGNILHPKVENGEVVLKTPAEAFNPGMGSKVNWIFEFSKDLKVSCAGSTFKVPRDNRLIISSRPKWIRLDMDRAIYDQLETIFPVDGAMLSGYQMIKEEYEDGSTYKDYVEHSVEVINKLKSLNPDLRIHVELTSIQNRVIRKAILTEIVARHVHSLGLDTVEVANALNVLGYEELSYSVIRKGENGIMSLYQGAVQLMKDLKLERVHVHSLGFYICILAKGHPLTLKEHRDALLFSSVLAASRALHGKIEDLNEAETGLDVPVSAQGLEDLETFKLYCTGRKLCSPDEFEYGYIYGSDHDAILIPSKVVDRPKATVGIGDTISAGAFAAMLARMKQIKSGK
notes: de novo codon-optimized gene in pET-15b, N-terminal poly-His tag, E. coli C41; heat step 50 C, Ni-NTA, HiTrap-Q
By Km is commonly meant the substrate concentration at which the rate is half of its maximum. Usually kcat stands for the number of substrate molecules converted per active site and unit of time at saturation. The kcat/Km is the second-order rate constant that governs catalysis at low substrate concentration. With B1, in “purified protein”, the Km amounted to 72 ± 9 µM, the catalytic constant (kcat) turned out to be 6.1 ± 0.3 s⁻¹ and the kcat/Km stood at 84500 M⁻¹ s⁻¹.
